Reference: the supplement of paper PMC11246515
± gives the standard deviation of the averaged measurements.

Experiment: total protein half-life in vivo (active degradation + dilution); higher = more stable protein
[1] = E. coli NCM3722 delta-clpP delta-lon delta-hslV, growth: N-lim chemostat, doubling time 6 h
[2] = E. coli NCM3722 delta-clpP, growth: N-lim chemostat, doubling time 6 h
[3] = E. coli NCM3722 delta-hslV, growth: N-lim chemostat, doubling time 6 h
[4] = E. coli NCM3722 delta-lon, growth: N-lim chemostat, doubling time 6 h
[5] = E. coli NCM3722 delta-smpB, growth: N-lim chemostat, doubling time 6 h
[6] = wild type E. coli NCM3722, growth: C-lim chemostat, doubling time 3 h
[7] = wild type E. coli NCM3722, growth: C-lim chemostat, doubling time 6 h
[8] = wild type E. coli NCM3722, growth: C-lim chemostat, doubling time 12 h
[9] = wild type E. coli NCM3722, growth: N-lim chemostat, doubling time 6 h
[10] = wild type E. coli NCM3722, growth: N-lim chemostat, doubling time 12 h
[11] = wild type E. coli NCM3722, growth: P-lim chemostat, doubling time 6 h
[12] = wild type E. coli NCM3722, growth: P-lim chemostat, doubling time 12 h

Sequence	total protein half-life in vivo [1]	total protein half-life in vivo [2]	total protein half-life in vivo [3]	total protein half-life in vivo [4]	total protein half-life in vivo [5]	total protein half-life in vivo [6]	total protein half-life in vivo [7]	total protein half-life in vivo [8]	total protein half-life in vivo [9]	total protein half-life in vivo [10]	total protein half-life in vivo [11]	total protein half-life in vivo [12]
MLNRYPLWKYVMLIVVIVIGLLYALPNLFGEDPAVQITGARGVAASEQTLIQVQKTLQEEKITAKSVALEEGAILARFDSTDTQLRAREALMGVMGDKYVVALNLAPATPRWLAAIHAEPMKLGLDLRGGVHFLMEVDMDTALGKLQEQNIDSLRSDLREKGIPYTTVRKENNYGLSITFRDAKARDEAIAYLSKRHPDLVISSQGSNQLRAVMSDARLSEAREYAVQQNINILRNRVNQLGVAEPVVQRQGADRIVVELPGIQDTARAKEILGATATLEFRLVNTNVDQAAAASGRVPGDSEVKQTREGQPVVLYKRVILTGDHITDSTSSQDEYNQPQVNISLDSAGGNIMSNFTKDNIGKPMATLFVEYKDSGKKDANGRAVLVKQEEVINIANIQSRLGNSFRITGINNPNEARQLSLLLRAGALIAPIQIVEERTIGPTLGMQNIEQGLEACLAGLLVSILFMIIFYKKFGLIATSALIANLILIVGIMSLLPGATLSMPGIAGIVLTLAVAVDANVLINERIKEELSNGRTVQQAIDEGYRGAFSSIFDANITTLIKVIILYAVGTGAIKGFAITTGIGVATSMFTAIVGTRAIVNLLYGGKRVKKLSI [P0AG90]	7.05 ± 0.45 h	6.58 ± 0.21 h	6.5 ± 0.39 h	6.33 ± 0.36 h	5.92 ± 0.46 h	3.51 ± 0.36 h	5.86 ± 0.32 h	12.6 ± 2 h	6.19 ± 0.036 h	12.1 ± 0.19 h	6.36 ± 0.41 h	12.2 ± 0.8 h
MKKIAIVGAGPTGIYTLFSLLQQQTPLSISIFEQADEAGVGMPYSDEENSKMMLANIASIEIPPIYCTYLEWLQKQEDSHLQRYGVKKETLHDRQFLPRILLGEYFRDQFLRLVDQARQQKFAVAVYESCQVTDLQITNAGVMLATNQDLPSETFDLAVIATGHVWPDEEEATRTYFPSPWSGLMEAKVDACNVGIMGTSLSGLDAAMAVAIQHGSFIEDDKQHVVFHRDNASEKLNITLLSRTGILPEADFYCPIPYEPLHIVTDQALNAEIQKGEEGLLDRVFRLIVEEIKFADPDWSQRIALESLNVDSFAQAWFAERKQRDPFDWAEKNLQEVERNKREKHTVPWRYVILRLHEAVQEIVPHLNEHDHKRFSKGLARVFIDNYAAIPSESIRRLLALREAGIIHILALGEDYKMEINESRTVLKTEDNSYSFDVFIDARGQRPLKVKDIPFPGLREQLQKTGDEIPDVGEDYTLQQPEDIRGRVAFGALPWLMHDQPFVQGLTACAEIGEAMARAVVKPASRARRRLSFD	4.97 ± 0.15 h	4.38 ± 0.22 h	4.07 ± 0.29 h	4.14 ± 0.29 h	3.75 ± 0.084 h	3.05 ± 0.16 h	5.2 ± 0.33 h	8.04 ± 1.7 h	3.89 ± 0.12 h	6.3 ± 0.43 h	5.59 ± 0.087 h	9.95 ± 0.48 h
MILHAQAKHGKPGLPWLVFLHGFSGDCHEWQEVGEAFADYSRLYVDLPGHGGSAAISVDGFDDVTDLLRKTLVSYNILDFWLVGYSLGGRVAMMAACQGLAGLCGVIVEGGHPGLQNAEQRAERQRSDRQWVQRFLTEPLTAVFADWYQQPVFASLNDDQRRELVALRSNNNGATLAAMLEATSLAVQPDLRANLSARTFAFYYLCGERDSKFRALAAELAADCHVIPRAGHNAHRENPAGVIASLAQILRF						3.44 h						
MNKYWLSGIIFLAYGLASPAFSSETATLAINGRISPPTCSMAMVNGQPQQHCGQLTYNVDTRHLFSSPVKGVTTEVVVAGSDSKRRIVLNRYD	1.53 h				0.626 ± 0.25 h		0.465 h					
MTELAQLQASAEQAAALLKAMSHPKRLLILCMLSGSPGTSAGELTRITGLSASATSQHLARMRDEGLIDSQRDAQRILYSIKNEAVNAIIATLKNVYCP												9.02 h
MPGLKITLLQQPLVWMDGPANLRHFDRQLEGITGRDVIVLPEMFTSGFAMEAAASSLAQDDVVNWMTAKAQQCNALIAGSVALQTESGSVNRFLLVEPGGTVHFYDKRHLFRMADEHLHYKAGNARVIVEWRGWRILPLVCYDLRFPVWSRNLNDYDLALYVANWPAPRSLHWQALLTARAIENQAYVAGCNRVGSDGNGCHYRGDSRVINPQGEIIATADAHQATRIDAELSMAALREYREKFPAWQDADEFRLW	4.72 ± 0.34 h	4.042 ± 0.0079 h	4.46 ± 0.63 h	4.4 ± 0.72 h	3.9 ± 0.082 h	2.74 ± 0.14 h	5.22 ± 0.33 h	11.7 ± 4.7 h	4.42 ± 0.34 h	6.49 h	5.74 ± 0.18 h	10.8 ± 0.35 h
MPRLLTKRGCWITLAAAPFLLFLAAWGADKLWPLPLHEVNPARVVVAQDGTPLWRFADADGIWRYPVTIEDVSPRYLEALINYEDRWFWKHPGVNPFSVARAAWQDLTSGRVISGGSTLTMQVARLLDPHPKTFGGKIRQLWRALQLEWHLSKREILTLYLNRAPFGGTLQGIGAASWAYLGKSPANLSYSEAAMLAVLPQAPSRLRPDRWPERAEAARNKVLERMAVQGVWSREQVKESREEPIWLAPRQMPQLAPLFSRMMLGKSKSDKITTTLDAGLQRRLEELAQNWKGRLPPRSSLAMIVVDHTDMRVRGWVGSVDLNDDSRFGHVDMVNSIRSPGSVLKPFVYGLALDEGLIHPASLLQDVPRRTGDYRPGNFDSGFHGPISMSEALVRSLNLPAVQVLEAYGPKRFAAKLRNVGLPLYLPNGAAPNLSLILGGAGAKLEDMAAAYTAFARHGKAGKLRLQPDDPLLERPLMSSGAAWIIRRIMADEAQPLPDSALPRVAPLAWKTGTSYGYRDAWAIGVNARYVIGIWTGRPDGTPVVGQFGFASAVPLLNQVNNILLSRSANLPEDPRPNSVTRGVICWPGGQSLPEGDGNCRRRLATWLLDGSQPPTLLLPEQEGINGIRFPIWLDENGKRVAADCPQARQEMINVWPLPLEPWLPASERRAVRLPPASTSCPPYGHDAQLPLQLTGVRDGAIIKRLPGAAEATLPLQSSGGAGERWWFLNGEPLTERGRNVTLHLTDKGDYQLLVMDDVGQIATVKFVMQ	5.44 h	6.31 ± 1.1 h	5.74 ± 0.091 h	5.64 ± 0.55 h	4.87 ± 1.3 h	3.04 h		11.2 h	5.98 h	13.92 ± 0.086 h	6.15 ± 2 h	9.01 ± 4 h
MNSFNEGVVSPLLSFWRRSLMLAGALLLTACSHNSSLPPFTASGFAEDQGAVRIWRKDSGDNVHLLAVFSPWRSGDTTTREYRWQGDNLTLININVYSKPPVNIRARFDDRGDLSFMQRESDGEKQQLSNDQIDLYRYRADQIRQISDALRQGRVVLRQGRWHAMEQTVTTCEGQTIKPDLDSQAIAHIERRQSRSSVDVSVAWLEAPEGSQLLLVANSDFCRWQPNEKTF	6.47 ± 1.2 h	7.12 ± 0.33 h	6.4 h	6.98 h	6.11 ± 0.48 h	3.17 ± 0.14 h		11.2 h	6.3 ± 0.074 h	13.2 ± 1.6 h	6.31 ± 0.4 h	14.1 ± 1.4 h
MLKREMNIADYDAELWQAMEQEKVRQEEHIELIASENYTSPRVMQAQGSQLTNKYAEGYPGKRYYGGCEYVDIVEQLAIDRAKELFGADYANVQPHSGSQANFAVYTALLEPGDTVLGMNLAHGGHLTHGSPVNFSGKLYNIVPYGIDATGHIDYADLEKQAKEHKPKMIIGGFSAYSGVVDWAKMREIADSIGAYLFVDMAHVAGLVAAGVYPNPVPHAHVVTTTTHKTLAGPRGGLILAKGGSEELYKKLNSAVFPGGQGGPLMHVIAGKAVALKEAMEPEFKTYQQQVAKNAKAMVEVFLERGYKVVSGGTDNHLFLVDLVDKNLTGKEADAALGRANITVNKNSVPNDPKSPFVTSGIRVGTPAITRRGFKEAEAKELAGWMCDVLDSINDEAVIERIKGKVLDICARYPVYA [P0A825]	4.68 ± 1 h	3.83 ± 0.091 h	3.87 ± 0.15 h	4.35 ± 0.27 h	3.8 ± 0.26 h	3.22 ± 0.18 h	5.51 ± 0.18 h	10.7 ± 2.1 h	3.814 ± 0.011 h	5.98 ± 0.077 h	5.73 ± 0.5 h	11.3 ± 0.74 h
